Assay results: patent US20170275376A1 (Chugai, published 2017)

B1: mouse antibody AQ8 (antibody, V domains shown)
VH: EVNLVESGGGLVQPGGSMSLSCAASGFTFTDYYMSWVRQPPGKALEWLALIRNKANGYTTEYSASVKGRFTISRDNSQSILYLQMNALRAEDSATYYCARDSYYSYDGYAMDYWGQGTSVTVSS
VL: DIQMTQSPASLAASVGETITITCQASENIYFSLAWYQQKQGKSPQLLIYNTDSLKDGVPSRFSGSGSGTQYSMKINSMQPEDTATYFCRQSYDFPWTFGGGTKLEIK
notes: Mouse hybridoma antibody, tested as culture supernatant in ELISA; also called AQ8 antibody
B2: rat antibody AJ540 (antibody, V domains shown)
VH: QIQLVQSGPELKKPGESVKISCKASGYTFTDYAMHWVKQVPGKGLKWMGWINTYTGKPTYADDFKGRFVFSLEASASTANLQISNLKNEDTANVFCAREGGGYYWYFDFWGPGTMVTVSS
VL: DIVMTQSPTSMSISVGDRVTMNCKANQNVDFNVDWYQQKTGQSPKLLIYKASNRYTGVPDRFTGSGSGTDFTFTISNMQAEDLAVYYCMQSNSFPLTFGSGTNLEIK
notes: Rat hybridoma antibody, tested as culture supernatant in ELISA; also called AJ540 antibody

Legend:
anti-FX-arm of ACE910 = biological target: T1, anti-FX-arm of ACE910; assay: ELISA, hybridoma culture supernatant
T1 construct: This is inferred from the parallel order 'anti-FIXa/FX' and 'Q499-z121/J327-z119' and from the AQ/AJ antibody names; also called anti-FX side; anti-FX-F(ab')2
Method: (§1) Mice and rats were immunized with anti-FIXa-F(ab′)2 or anti-FX-F(ab′)2. Cells obtained from the spleen removed from the mice or rats or from rat lymph nodes were subjected to cell fusion with mouse myeloma cells by following general methods to produce the hybridomas. The culture supernatants of the hybridomas were evaluated by ELISA which detects the binding of ACE910 to the anti-FIXa-arm or the anti-FX-arm, and ultimately, mouse antibodies, AQ8 and AQ1, and rat antibody, AQ512, which bind only to the anti-FIXa-arm but not to the anti-FX-arm of ACE910, and rat antibodies, AJ540, AJ114, AJ521, AJ522, and AJ541, which bind only to the anti-FX-arm but not to the anti-FIXa-arm of ACE910 were selected. In addition, the nucleotide sequences of the variable regions of the AQ8 antibody or the AJ540 antibody were analyzed. The nucleotide sequences of the variable regions of AQ8 and AJ540, and amino acid sequences predicted therefrom were analyzed using GENETYX Ver.9 (GENETYX CORPORATION).

anti-FIXa-arm of ACE910 = biological target: T2, anti-FIXa-arm of ACE910; assay: ELISA, hybridoma culture supernatant
T2 construct: This is inferred from the parallel order 'anti-FIXa/FX' and 'Q499-z121/J327-z119' and from the AQ/AJ antibody names; also called anti-FIXa side; anti-FIXa-F(ab')2
Method: as §1

T1 sequence (VH, as listed by the source, chain 1 of 2): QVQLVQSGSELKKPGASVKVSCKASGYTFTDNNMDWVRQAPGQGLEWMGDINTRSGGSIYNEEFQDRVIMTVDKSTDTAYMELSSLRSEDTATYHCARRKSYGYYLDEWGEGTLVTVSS
T1 sequence (VL, as listed by the source, chain 2 of 2): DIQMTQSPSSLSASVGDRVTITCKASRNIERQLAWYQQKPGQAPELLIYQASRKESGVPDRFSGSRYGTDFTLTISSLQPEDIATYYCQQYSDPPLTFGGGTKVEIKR
T2 sequence (VH, as listed by the source, chain 1 of 2): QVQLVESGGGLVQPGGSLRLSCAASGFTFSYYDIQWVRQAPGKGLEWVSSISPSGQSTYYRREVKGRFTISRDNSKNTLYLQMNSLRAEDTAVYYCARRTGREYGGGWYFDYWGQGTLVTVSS
T2 sequence (VL, as listed by the source, chain 2 of 2): as the sequence (VL, as listed by the source, chain 2 of 2) above

Binder | binding result (anti-FX-arm of ACE910) | binding result (anti-FIXa-arm of ACE910)
B1 | no binding | 
B2 |  | no binding
